Laboratory results from the RNAGym collection of RNA variant scans (doi:10.1073/pnas.2313332121).

B1: TPR t1 (parent)
chain: GACCAAUCUGCCCUCAGAGCUCGAGAACAUCUUCGGAUGCAGAGGAGGCAGGCUUCGGUGGCGCGAUAGCGCCAACGUCCUCAACCUCCAAUGCAUCCCACCACAUGAUGAUGCCUGAAGAGCCUUGGUUUUUUG

Variants of: B1
Assay: polymerase ribozyme fitness, log enrichment relative to wild type (log ratio); higher = more active; in vitro selection for triplet polymerase activity
How it was run: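 After PCR construction and transcription, each subunit's mutant library from a heterodimeric triplet polymerase ribozyme was annealed with a biotinylated primer, the partner subunit and triplets. Incubation was frozen, at −7 °C, and extended constructs were gel-excised, bound to streptavidin beads and amplified by RT-PCR, in one selection round done in triplicate. Fitness is the logarithm of a genotype's enrichment divided by that of the wild type, from inverse-variance-weighted replicate averages of Illumina-sequenced inputs and outputs. The base of the logarithm is 2, and genotypes needed ≥10 input reads and ≥1 read per output.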

Variant	polymerase ribozyme fitness (log ratio)
GACCAAUCUGCCCUCAGAGCUCGAGAACAUCUUCGGAUGCAGAGGAGGCAGGAUUCGGUAGCGCGAUAGCGCCAACGUCCUCAACCUCCAAUGCAUCCCACCACAUGAUGAUGCCUGAAGAGCCUUGGUUUUUUG [C53A G60A]	-0.364
GACCAAUCUGCCCUCAGAGCUCGAGAACAUCUUCGGAUGCAGAGGAGGCAGGAUUCGGUAGCGCGAUAGCGCCAACGUCCUCAACCUCCAAUGCAUCCCUCCACAUGAUGAUGCCUGAACAGGCUUGGUUUUUUG [C53A G60A A100U G120C C123G]	-1.07
GACCAAUCUGCCCUCAGAGCUCGAGAACAUCUUCGGAUGCAGAGGAGGCAGGAUUCGGUAGCGCGAUAGCGCCAACGUCCUCAACCUCCAAUGCAUCCCACCACAUGAUGAUGCCUGAAGAGCCUUGGUUUUAUG [C53A G60A U133A]	-1.16
GACCAAUCUGCCCUCAGAGCUCGAGAACAUCUUCGGAUGCAGAGGAGGCAGGAUUCGGUGACGCGAUAGCGCCAACGUACUCAACCUCCAAUGCAUCCCACCACAUGAUGAUGCCUGAAGAGCCUUGGUUUUUUG [C53A G61A C79A]	-0.911
GACCAAUCUGCCCUCAGAGCUCGAGAACAUCUUCGGAUGCAGAGGAGGCAGGAUUCGGUGACGCGAUAGCGCCAACGGCCUCAACCUCCAAUGCAUCCCACCACAUGAUGAUGCCUGAAGAGCCUUGGUUUUUUG [C53A G61A U78G]	0.644
GACCAAUCUGCCCUCAGAGCUCGAGAACAUCUUCGGAUGCAGAGGAGGCAGGAUUCGGUGGCUCGAUAGCGCCAACGUCCGCUACCUCCAAUGCAUCCCACCACAUGAUGAUGCCUGAACAGCCUUGGUUUUUUG [C53A G63U U81G A83U G120C]	-3.85
GACCAAUCUGCCCUCAGAGCUCGAGAACAUCUUCGGAUGCAGAGGAGGCAGGAUUCGGUGGCGCGAUAACGCCAACGUCCUCAACCUCCAAUGCAUCCCACCACAUGAUGAUGCCUGAAGAGCAUUGGUUUUUUG [C53A G69A C124A]	-0.263
GACCAAUCUGCCCUCAGAGCUCGAGAACAUCUUCGGAUGCAGAGGAGGCAGGAUUCGGUGGCGCGAUAUCGCCAACGUCCUCAACCUCCAAUGCAUCCCACCACUUGAUGAUGCCUGAAGAGCCUUGGUUUUUUG [C53A G69U A105U]	-0.0597
GACCAAUCUGCCCUCAGAGCUCGAGAACAUCUUCGGAUGCAGAGGAGGCAGGAUUCGGUGGCGCGAUAGCACCAACGUCCUCAAACUCCAAUGCAUCCCACCACAUGAUGAUGCCUGAAGAGCCUUGGUUUUUUG [C53A G71A C85A]	-4.06
GACCAAUCUGCCCUCAGAGCUCGAGAACAUCUUCGGAUGCAGAGGAGGCAGGAUUCGGUGGCGCGAUAGCUCCAACGUCCUCAACUUCCAAUGCAUCCCUCCACAUGAUUAUGCCUGAAGAGCCUUGGUUUUUUG [C53A G71U C86U A100U G110U]	-4.31
GACCAAUCUGCCCUCAGAGCUCGAGAACAUCUUCGGAUGCAGAGGAGGCAGGAUUCGGUGGCGCGAUAGCUCCAACGUCCUCAACCUCCAAUGCAUCCCACCACAUGAUGAUGCCUGAAGAGCCUUGCUUUUUUG [C53A G71U G128C]	-2.77
GACCAAUCUGCCCUCAGAGCUCGAGAACAUCUUCGGAUGCAGAGGAGGCAGGAUUCGGUGGCGCGAUAGCGCCAACGUCCUCAACCUCCAAUACAUCCCACCACAUGAUGAUGCCUGAAGAGCCUUGGUUUUUUG [C53A G93A]	-0.768
GACCAAUCUGCCCUCAGAGCUCGAGAACAUCUUCGGAUGCAGAGGAGGCAGGAUUCGGUGGCGCGAUAGCGCCAACGUCCUCAACCUCCAAUGCAUCCCACCACAUGAUGAUGCCUGAAGAGCCUUGGUUUUUUA [C53A G135A]	0.127
GACCAAUCUGCCCUCAGAGCUCGAGAACAUCUUCGGAUGCAGAGGAGGCAGGAAUUGGUGGCGCGAUAGCGCCAACGUCCUCAACCUCCAAUGCAUCCCAUCACAUGAUGAUGCCUGAAGAGCCUUGGUUUUUUG [C53A U54A C56U C101U]	0.471
GACCAAUCUGCCCUCAGAGCUCGAGAACAUCUUCGGAUGCAGAGGAGGCAGGAAUCGGUGGUGCGAUAGCGCCAACGUCAUCAACCUCCAAUGCAUCCCACCACAUGAUGAUGACUGAAGAGCGAUGGUUUUUUG [C53A U54A C62U C80A C114A C124G U125A]	-6.53
GACCAAUCUGCCCUCAGAGCUCGAGAACAUCUUCGGAUGCAGAGGAGGCAGGAGUCGGUGGCGCGAUAGUGCCAACGUCCUCAACUUCGAAUGCAUCCCACCACAUGAUGAUGCCUGAAGCGCCAUGGUUUUUUG [C53A U54G C70U C86U C89G A121C U125A]	-2
GACCAAUCUGCCCUCAGAGCUCGAGAACAUCUUCGGAUGCAGAGGAGGCAGGAUACGGUGGCGCGAUAGCGCCAACGUCCUCAACCUUUAAUGCAUCCCACCACAUGAUGAUGCCUGAAGAGCCUUGGUUUUUUG [C53A U55A C88U C89U]	-0.643
GACCAAUCUGCCCUCAGAGCUCGAGAACAUCUUCGGAUGCAGAGGAGGCAGGAUUCGGUGGCGCGAUAGCGCCAACGCCCUCAACCUCCAAUGCAUCCCACCACAUGAUGAUGCCUGAAGAGCCUUGGUUUUUUG [C53A U78C]	-0.332
GACCAAUCUGCCCUCAGAGCUCGAGAACAUCUUCGGAUGCAGAGGAGGCAGGAUUCGGUGGCGCGAUAGCGCCAACGGCCUAAACCUCCAAUGCAUCCCACCACAUGAUGAUGCCUGAAGAGCCUUGGUUUUUUG [C53A U78G C82A]	0.638
GACCAAUCUGCCCUCAGAGCUCGAGAACAUCUUCGGAUGCAGAGGAGGCAGGAUUCGGUGGCGCGAUAGCGCCAACGUCCUCAACCUCCAAUGCAUCCCACCACAUGAUGAGGCCUGAAGAGCCUUGGUUUUUUG [C53A U112G]	-0.496
GACCAAUCUGCCCUCAGAGCUCGAGAACAUCUUCGGAUGCAGAGGAGGCAGGAUUCGGUGGCGCGAUAGCGCCAACGUCCUCAACCUCCAAUGCAUCCCACCACAUGAUGAUGCCUGAAGAGCCUUGGUAUUUUG [C53A U130A]	0.226
